Key:
GFP-Nup62 = assay: Deglycosylation of GFP-Nup62 co-expressed with OGA constructs (anti-EPEA enrichment, RL2 immunoblot); type: cell-based, human; conditions: co-expressed in HEK 293T cells
Description: HEK 293T cells were cultured in Dulbecco's Modified Eagle Medium (DMEM, Cat #11995073) supplemented with penicillin (50 μg/mL) and streptomycin (50 μg/mL) along with 10% (v/v) FBS. Transfections of all plasmids in this study were performed using TransIT-PRO® (Mirus Bio, Cat #MIR 5740) according to the manufacturer's instructions.
Glycoproteins Nup62, Sp1, JunB, c-Jun were subcloned into pcDNA3.1 vector with a GFP and a Flag-tag or a BC2 tag in the N-terminus and an EPEA tag in the C terminus respectively, unless otherwise noted. For all split OGA constructs with or without the fusion of nanobody GFP, N fragments were tagged with myc tag and C fragments were tagged with HA tag respectively. Human SP1 cDNA ORF plasmid (Cat #HG12024-G), human c-Fos cDNA ORF plasmid, and human OGT cDNA ORF cloned with a C-terminal His tag (Cat #HG11279-M) were purchased from Sino Biological. For subcloning, PCR fragments were amplified using Q5 High-Fidelity 2× Master Mix (New England BioLabs, Cat #M0492S). The vectors were double-digested and ligated to gel-purified PCR products by T4 ligation using T4 DNA ligase (New England BioLabs, Cat #M0202S) or by Gibson assembly using Gibson Assembly Master mix (New England BioLabs, Cat #E2611L). c-Fos was subcloned into a pcDNA3.1 vector with a 14-residue Ubc tag (amino acids: QADQEAKELARQIA (SEQ ID NO: 11)), Flag tag, and EPEA tag at the C terminus. All nanobody DNA fragments were synthesized by IDT.
After 36-48 h of transfection, cells were harvested and washed with PBS once. Cells were lysed with M-PER lysis buffer containing 1× protease inhibitor cocktail and 10 μM Thiamet-G unless otherwise noted. Protein concentrations were determined by the BCA assay kit (G-Biosciences, 786) on a multi-mode microplate reader FilterMax F3 (Molecular Devices LLC, Sunnyvale, CA).
For immunoprecipitation of proteins with the C-terminal EPEA tag, cell lysates with equal amounts of protein were diluted with PBS and incubated with C-tag affinity matrix (Thermo Scientific) for 1 h at room temperature, with end-to-end rotation, following the manufacturer's instructions. After washing three times with PBS buffer, the enriched proteins were eluted with SDS sample buffer and subjected to SDS-PAGE.
For immunoblotting analysis, proteins were transferred to a nitrocellulose membrane using iBlot (Thermo Scientific). Membranes were blocked with Tris buffered saline containing 0.1% Tween-20 and 5% BSA and incubated with the primary antibodies (1:1000 dilution) and the secondary antibodies (1:10,000 dilution) sequentially. Immunoblot images were captured by Azure Imager C600. Analysis of immunoblots was conducted with Fiji ImageJ. All IR fluorescence western blot images are converted into grayscale images by Fiji ImageJ. The unsaturated exposure of immunoblot images was used for quantification with the appropriate loading controls as standards. Statistical analysis of the data was performed with Prism 8, using data from at least three independent experiments.

OGT = target: T1, OGT (Homo sapiens, UniProt O15294); assay: Co-immunoprecipitation of OGA constructs with His-tagged OGT; type: cell-based; conditions: OGT-His co-transfected in HEK 293T cells
T1 construct: host or cells: HEK 293T
T1 sequence (O15294 1-1046): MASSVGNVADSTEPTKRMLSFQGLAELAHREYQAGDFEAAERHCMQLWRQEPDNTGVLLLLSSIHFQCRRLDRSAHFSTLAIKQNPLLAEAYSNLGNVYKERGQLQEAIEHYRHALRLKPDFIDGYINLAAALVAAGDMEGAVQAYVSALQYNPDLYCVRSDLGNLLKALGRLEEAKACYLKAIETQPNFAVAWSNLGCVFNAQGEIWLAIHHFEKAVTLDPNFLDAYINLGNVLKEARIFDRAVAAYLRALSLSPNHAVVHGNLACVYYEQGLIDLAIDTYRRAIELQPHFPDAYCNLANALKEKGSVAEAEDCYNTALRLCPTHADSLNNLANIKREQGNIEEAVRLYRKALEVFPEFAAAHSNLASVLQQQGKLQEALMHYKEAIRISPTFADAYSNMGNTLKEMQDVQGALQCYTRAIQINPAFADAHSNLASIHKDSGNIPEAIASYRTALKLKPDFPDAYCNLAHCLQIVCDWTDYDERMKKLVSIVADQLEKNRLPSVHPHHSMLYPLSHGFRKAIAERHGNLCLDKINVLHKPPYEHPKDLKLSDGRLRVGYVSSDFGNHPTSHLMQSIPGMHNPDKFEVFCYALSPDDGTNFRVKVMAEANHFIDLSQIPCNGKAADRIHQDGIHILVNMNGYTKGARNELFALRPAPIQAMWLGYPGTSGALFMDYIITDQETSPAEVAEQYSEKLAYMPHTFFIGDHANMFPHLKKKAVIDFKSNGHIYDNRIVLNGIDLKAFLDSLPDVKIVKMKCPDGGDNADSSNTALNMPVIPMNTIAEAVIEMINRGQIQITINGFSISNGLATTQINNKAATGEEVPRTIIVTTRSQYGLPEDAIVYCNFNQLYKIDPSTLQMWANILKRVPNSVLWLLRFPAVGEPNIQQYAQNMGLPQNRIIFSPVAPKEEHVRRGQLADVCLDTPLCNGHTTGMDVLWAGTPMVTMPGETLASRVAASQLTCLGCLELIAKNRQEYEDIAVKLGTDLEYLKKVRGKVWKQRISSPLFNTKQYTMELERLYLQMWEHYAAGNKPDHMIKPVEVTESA
Description: For immunoprecipitation of proteins with His tag, cells were lysed in a buffer containing 50 mM Tris HCl pH 8.0, 150 mM NaCl, 1% Triton X-100, 5% glycerol, 1× protease inhibitor cocktail and 10 μM Thiamet-G on ice for 20 min. Cell lysates with equal amounts of protein were diluted with wash buffer (50 mM Tris HCl pH 8.0, 150 mM NaCl, 0.01% Tween-20) and incubated with pre-washed His-Tag Dynabeads (Invitrogen, 10103D) at room temperature for 20 min with mixing, following the manufacturer's instructions. After washed 4 times with wash buffer, the enriched proteins were eluted with elution buffer (300 mM Imidazole, 50 mM Tris HCl pH 8.0, 150 mM NaCl, 0.01% Tween-20) on a shaker for 10 min at room temperature.

interaction with OGT (OGT): unable to interact with OGT
B1: split OGA (N2+C3): split OGA fragments N2 and C3 without nanobody (protein)
chain 1: MEQKLISEEDLAIAMVQKESQATLEERESELSSNPAASAGASLEPPAAPAPGEDNPAGAGGAAVAGAAGGARRFLCGVVEGFYGRPWVMEQRKELFRRLQKWELNTYLYAPKDDYKHRMFWREMYSVEEAEQLMTLISAAREYEIEFIYAISPGLDITFSNPKEVSTLKRKLDQVSQFGCRSFALLFDDIDHNMCAADKEVFSSFAHAQVSITNEIYQYLGEPETFLFCPTEYCGTFCYPNVSQSPYLRTVGEKLLPGIEVLWTGPKVVSKEIPVESIEEVSKIIKRAPVIWDNIHANDYDQKRLFLGPYKGRSTELIPRLKGVLTNPNCEFEANYVAIHTLATWYKSNMNGVRKDVVMTDSEDSTVSIQIKLENEGSDEDIETDVLYSPQMALKLALTEWLQEFGVPHQYSSR
chain 2: MAYPYDVPDYAAIAEKPLYTAEPVTLEDLQLLADLFYLPYEHGPKGAQMLREFQWLRANSSVVSVNCKGKDSEKIEEWRSRAAKFEEMCGLVMGMFTRLSNCANRTILYDMYSYVWDIKSIMSMVKSFVQWLGCRSHSSAQFLIGDQEPWAFRGGLAGEFQRLLPIDGANDLFFQPP
deglycosidase activity / O-GlcNAc modification level on GFP-Nup62 (GFP-Nup62): limited substrate activity
deglycosidase activity / O-GlcNAc modification level on GFP-Nup62 (GFP-Nup62; listed as N2-C3 pair): significantly reduced activity
